Results taken from article PMC6478713, “Structural insight into YcbB-mediated beta-lactam resistance in Escherichia coli” (Nature Communications, 2019).

T1: Escherichia coli PBP1b from residue 58 onward, styrene-maleic acid co-polymer solubilised, fluorescently … (Escherichia coli, UniProt P02919 58-844, Alexa Fluor 647 NHS Ester label (sites not given))
T1 construct: Held in styrene-maleic acid co-polymer particles; Thrombin-cleavable tag; the purification paragraph calls the removed tag N-terminal, the cloning paragraph C-terminal; also called SMA-solubilised PBP1b; not shown: His8, C-terminal, cleaved
T1 sequence: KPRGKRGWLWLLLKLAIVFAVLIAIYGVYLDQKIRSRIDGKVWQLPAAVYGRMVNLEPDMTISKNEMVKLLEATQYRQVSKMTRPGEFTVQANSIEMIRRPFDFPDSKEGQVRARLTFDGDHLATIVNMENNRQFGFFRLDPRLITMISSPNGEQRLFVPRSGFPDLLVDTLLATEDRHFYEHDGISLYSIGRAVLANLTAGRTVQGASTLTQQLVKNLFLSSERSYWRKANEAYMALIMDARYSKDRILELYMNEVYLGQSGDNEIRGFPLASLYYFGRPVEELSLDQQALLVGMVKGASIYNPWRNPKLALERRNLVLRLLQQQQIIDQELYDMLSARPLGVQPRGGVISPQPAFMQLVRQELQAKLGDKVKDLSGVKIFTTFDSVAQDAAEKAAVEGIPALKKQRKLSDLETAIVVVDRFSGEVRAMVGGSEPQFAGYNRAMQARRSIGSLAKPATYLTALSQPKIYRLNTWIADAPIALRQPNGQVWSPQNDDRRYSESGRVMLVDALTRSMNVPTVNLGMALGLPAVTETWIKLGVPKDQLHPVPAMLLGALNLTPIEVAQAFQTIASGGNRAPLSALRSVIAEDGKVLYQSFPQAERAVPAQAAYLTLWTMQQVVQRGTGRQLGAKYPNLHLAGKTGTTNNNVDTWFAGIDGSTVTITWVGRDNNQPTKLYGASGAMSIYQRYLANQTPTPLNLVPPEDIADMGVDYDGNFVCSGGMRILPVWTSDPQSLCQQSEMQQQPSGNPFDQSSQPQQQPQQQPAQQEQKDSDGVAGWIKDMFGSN

T2: Escherichia coli YcbB (residue 31 onward), fluorescently labelled with Alexa Fluor 647 (Escherichia coli, UniProt P22525 31-615, Alexa Fluor 647 NHS Ester label (sites not given))
T2 construct: L,D-transpeptidase YcbB (LdtD), E. coli, without its signal peptide (residues 1-30), residue 31 onward; Same construct as m1, labelled for the MST with PBP5; also called fluorescently labelled YcbB; source: E. coli BL21 (DE3), purified (HisTrap Ni2+, SEC Superdex 200), then labelled; not shown: His8, C-terminal, cleaved
T2 sequence: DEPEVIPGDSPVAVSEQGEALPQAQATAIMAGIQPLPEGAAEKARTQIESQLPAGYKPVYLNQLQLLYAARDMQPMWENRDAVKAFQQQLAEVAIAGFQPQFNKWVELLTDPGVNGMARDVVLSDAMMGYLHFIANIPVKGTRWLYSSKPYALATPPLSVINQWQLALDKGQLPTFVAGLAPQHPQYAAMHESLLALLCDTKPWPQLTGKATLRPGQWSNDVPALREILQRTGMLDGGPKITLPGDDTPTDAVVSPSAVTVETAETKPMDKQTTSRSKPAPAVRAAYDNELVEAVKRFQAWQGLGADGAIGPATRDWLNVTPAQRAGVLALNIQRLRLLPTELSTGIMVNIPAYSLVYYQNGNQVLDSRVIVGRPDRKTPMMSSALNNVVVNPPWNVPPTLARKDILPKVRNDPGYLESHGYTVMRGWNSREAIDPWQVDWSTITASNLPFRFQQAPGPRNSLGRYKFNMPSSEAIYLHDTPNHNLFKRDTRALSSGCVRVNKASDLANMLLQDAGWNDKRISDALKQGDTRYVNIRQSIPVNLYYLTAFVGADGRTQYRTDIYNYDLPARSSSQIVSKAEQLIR


How the values were obtained:
[1] = molecular target: T1, Escherichia coli PBP1b from residue 58 …; test: MST; Monolith NT.115Pico; unlabelled YcbB (1.5 nM-3.1 uM) titrated into Alexa Fluor 647-labelled SMA-solubilised PBP1b at 100 nM; Buffer C; analysed using fluorescence values; binding isotherm with adjustable Hill coefficient; conditions: both partners purified
[2] = molecular target: T2, Escherichia coli YcbB (residue 31 …); test: MST; Monolith NT.115Pico; unlabelled PBP5 (120 pM-98 uM) titrated into Alexa Fluor 647-labelled YcbB at 15 nM; Buffer C; analysed using MST; binding isotherm with adjustable Hill coefficient; conditions: both partners purified

| Binder | Kd [1] [nM] | Kd [2] [nM] |
| --- | --- | --- |
| Escherichia coli YcbB without its signal peptide (residue 31 onward) (enzyme, L,D-transpeptidase YcbB (LdtD), E. coli, without its signal peptide (residues 1-30), residue 31 onward; Unlabelled form: titrant in the MST with PBP1b and the protein that was crystallised (there acylated by meropenem on Cys528); Vector named pET41b-GST; no GST on the protein is spoken of; Thrombin-cleavable tag; the purification paragraph calls the removed tag N-terminal, the cloning paragraph …) DEPEVIPGDSPVAVSEQGEALPQAQATAIMAGIQPLPEGAAEKARTQIESQLPAGYKPVYLNQLQLLYAARDMQPMWENRDAVKAFQQQLAEVAIAGFQPQFNKWVELLTDPGVNGMARDVVLSDAMMGYLHFIANIPVKGTRWLYSSKPYALATPPLSVINQWQLALDKGQLPTFVAGLAPQHPQYAAMHESLLALLCDTKPWPQLTGKATLRPGQWSNDVPALREILQRTGMLDGGPKITLPGDDTPTDAVVSPSAVTVETAETKPMDKQTTSRSKPAPAVRAAYDNELVEAVKRFQAWQGLGADGAIGPATRDWLNVTPAQRAGVLALNIQRLRLLPTELSTGIMVNIPAYSLVYYQNGNQVLDSRVIVGRPDRKTPMMSSALNNVVVNPPWNVPPTLARKDILPKVRNDPGYLESHGYTVMRGWNSREAIDPWQVDWSTITASNLPFRFQQAPGPRNSLGRYKFNMPSSEAIYLHDTPNHNLFKRDTRALSSGCVRVNKASDLANMLLQDAGWNDKRISDALKQGDTRYVNIRQSIPVNLYYLTAFVGADGRTQYRTDIYNYDLPARSSSQIVSKAEQLIR | 250 ± 30 |  |
| Escherichia coli PBP5 from residue 30 onward (enzyme, HRV 3C protease-cleavable tag; the purification paragraph calls the removed tag N-terminal, the cloning paragraph C-terminal; also called D,D-carboxypeptidase PBP5; source: E. coli BL21 (DE3), purified (HisTrap Ni2+, SEC Superdex 200); not shown: His8, C-terminal, cleaved) DDLNIKTMIPGVPQIDAESYILIDYNSGKVLAEQNADVRRDPASLTKMMTSYVIGQAMKAGKFKETDLVTIGNDAWATGNPVFKGSSLMFLKPGMQVPVSQLIRGINLQSGNDACVAMADFAAGSQDAFVGLMNSYVNALGLKNTHFQTVHGLDADGQYSSARDMALIGQALIRDVPNEYSIYKEKEFTFNGIRQLNRNGLLWDNSLNVDGIKTGHTDKAGYNLVASATEGQMRLISAVMGGRTFKGREAESKKLLTWGFRFFETVNPLKVGKEFASEPVWFGDSDRASLGVDKDVYLTIPRGRMKDLKASYVLNSSELHAPLQKNQVVGTINFQLDGKTIEQRPLVVLQEIPEGNFFGKIIDYIKLMFHHWFG |  | ~2000 |
